According to patent publication US5597711A, “Factor VIII binding domain of von Willebrand factor” (The Scripps Research Institute, priority 1995, dated 1997):
One block for each compound: values may come before it.

Tests used:
[1] = molecular target: T1, purified FVIII (Homo sapiens, UniProt P00451); assay: Crossed immunoelectrophoresis: complex formation of vWF or vWF fragments with FVIII; assay type: binding; conditions: co-precipitation of 125I-labeled monoclonal anti-FVIII antibody
T1 construct: The purification of FVIII from commercial factor VIII concentrate (Armour Pharmaceutical, Kankakee, IL), by immunoadsorbent chromatography; tissue Armour Pharmaceutical, Kankakee, IL; host or cells: commercial factor VIII concentrate, purified in house by immunoadsorbent chromatography
T1 sequence (P00451 1668-2351 limits assumed): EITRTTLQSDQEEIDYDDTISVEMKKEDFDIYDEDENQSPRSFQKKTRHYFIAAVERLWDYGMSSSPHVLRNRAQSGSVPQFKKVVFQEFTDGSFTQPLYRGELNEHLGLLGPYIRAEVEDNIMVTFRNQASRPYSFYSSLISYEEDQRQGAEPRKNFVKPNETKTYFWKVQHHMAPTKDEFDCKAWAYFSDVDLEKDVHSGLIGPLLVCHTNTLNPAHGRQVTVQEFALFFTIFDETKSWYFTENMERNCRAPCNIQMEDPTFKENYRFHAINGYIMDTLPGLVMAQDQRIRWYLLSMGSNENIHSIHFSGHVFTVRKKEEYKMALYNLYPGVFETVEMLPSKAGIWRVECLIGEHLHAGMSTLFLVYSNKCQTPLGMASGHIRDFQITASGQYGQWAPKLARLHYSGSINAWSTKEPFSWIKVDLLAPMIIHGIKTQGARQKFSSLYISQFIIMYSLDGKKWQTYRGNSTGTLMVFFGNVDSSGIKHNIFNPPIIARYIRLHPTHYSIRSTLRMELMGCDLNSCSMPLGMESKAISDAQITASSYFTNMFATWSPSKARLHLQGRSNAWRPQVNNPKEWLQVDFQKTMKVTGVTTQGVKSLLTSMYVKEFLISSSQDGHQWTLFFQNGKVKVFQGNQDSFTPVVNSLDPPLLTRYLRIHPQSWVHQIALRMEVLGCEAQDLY
T1 sequence (P00451 20-759 partner limits assumed): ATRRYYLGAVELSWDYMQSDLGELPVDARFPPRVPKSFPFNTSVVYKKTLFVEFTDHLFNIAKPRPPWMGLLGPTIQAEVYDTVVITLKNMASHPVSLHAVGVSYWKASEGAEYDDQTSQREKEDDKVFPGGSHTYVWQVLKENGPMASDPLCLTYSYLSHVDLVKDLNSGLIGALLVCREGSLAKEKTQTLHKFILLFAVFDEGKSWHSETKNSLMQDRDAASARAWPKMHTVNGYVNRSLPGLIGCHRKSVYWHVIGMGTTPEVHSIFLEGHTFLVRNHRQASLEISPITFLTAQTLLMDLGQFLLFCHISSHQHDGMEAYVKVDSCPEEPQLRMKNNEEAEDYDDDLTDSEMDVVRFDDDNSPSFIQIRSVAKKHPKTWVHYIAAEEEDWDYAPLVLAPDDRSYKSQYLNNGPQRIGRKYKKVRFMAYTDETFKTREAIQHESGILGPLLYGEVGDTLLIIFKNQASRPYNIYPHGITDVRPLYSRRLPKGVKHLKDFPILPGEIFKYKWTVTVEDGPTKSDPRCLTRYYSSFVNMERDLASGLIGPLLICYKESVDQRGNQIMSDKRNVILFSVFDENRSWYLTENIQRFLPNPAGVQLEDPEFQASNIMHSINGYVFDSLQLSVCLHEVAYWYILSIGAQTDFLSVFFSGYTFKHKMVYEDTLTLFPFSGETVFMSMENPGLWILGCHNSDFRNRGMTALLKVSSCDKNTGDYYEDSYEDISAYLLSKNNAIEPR
Description: Two dimensional crossed immunoelectrophoresis of vWF was performed as described in Zimmerman et al., Immunoassays: Clinical Laboratory Techniques for the 1980's, pp. 339-349, Alan R. Liss, Inc., New York (1980), with the following modifications. Agarose was poured in a 1.5 cm strip at the bottom of a 10.2 cm×8.3 cm piece of Gelbond (FMC Corporation, Rockland, Me.). Purified vWF or fragments of vWF, FVIII, and ^125 I labeled monoclonal anti-FVIII antibody were mixed in the sample well and electrophoresed. A second gel containing 125-250 μl of rabbit serum containing polyclonal anti-vWF antibodies was then poured and the second dimension was electrophoresed at right angles to the first dimension. Autoradiographs were made of the gels and compared to Coomassie brilliant blue staining of the gels.

[2] = molecular target: T2, FVIII binding to solid phase vWF (Homo sapiens, UniProt P00451); assay: Competitive inhibition assay of FVIII binding to solid phase vWF; conditions: competitive ligand in fluid phase, 0-100 μg in 1 ml
T2 construct: The purification of FVIII from commercial factor VIII concentrate (Armour Pharmaceutical, Kankakee, IL), by immunoadsorbent chromatography; tissue Armour Pharmaceutical, Kankakee, Ill; host or cells: commercial factor VIII concentrate, both proteins purified in house by immunoadsorbent chromatography
T2 sequence (P00451 1668-2351 limits assumed): T1 sequence (P00451 1668-2351 limits assumed)
T2 sequence (P00451 20-759 partner limits assumed): T1 sequence (P00451 20-759 partner limits assumed)
Description: (§1) Competitive inhibition assay of FVIII binding to solid phase vWF: 50 μg of whole unreduced vWF in 1 ml of 0.01M PO4, 0.15M Nacl, 0.02% NaN3, pH 7.3 (PBS), was incubated with three 1/4 inch in diameter polystyrene beads (Pierce Chemical Company, Rockford, Ill.) per 16 mm in diameter tissue culture well for 2 hours at room temperature. The solution was removed and the wells and the beads were then blocked with 1 ml of PBS containing 0.05% Tween-20 and 3% human serum albumin for 1 hour at room temperature. The wells and the beads were stored in the blocking solution at 4° C. for 16 hours to 10 days before use. The wells and beads were then washed ×3 with PBS. 0.05% Tween-20 and incubated for 11/2 hours at room temperature with 1.3 μg of purified FVIII and 0-100 μg of the competitive ligand in 1 ml of 0.05M imidazole, 0.15M Nacl, 0.02% NaN3, pH 7.0, 3 mM CaCl. The beads then were washed ×5 with PBS 0.05% Tween-20 and incubated for 11/2 hour at room temperature with 1.5×10^6 cpm of ^125 I-monoclonal anti-FVIII antibody C2 (specific activity 3.8×10^9 cpm/mg), in 1 ml of PBS 0.05% Tween-20 containing 0.5% bovine gamma globulin. After incubation, the wells and beads were washed with PBS 0.05% Tween-20×2. The beads were then transferred to clean wells and washed an additional four times and separately counted. […]

[3] = molecular target: T1, purified FVIII; assay: Binding of purified FVIII to vWF or SP fragment III immobilized on polystyrene beads; conditions: protein adsorbed on polystyrene beads; detected with 125I-labeled monoclonal anti-FVIII antibody
Description: as §1

[4] = molecular target: T3, vWF-FVIII complex (Homo sapiens, UniProt P00451); assay: Dissociation of FVIII from vWF immobilized on polystyrene beads by washing; assay type: binding
T3 construct: The purification of FVIII from commercial factor VIII concentrate (Armour Pharmaceutical, Kankakee, IL), by immunoadsorbent chromatography; tissue Armour Pharmaceutical, Kankakee, Ill; host or cells: commercial factor VIII concentrate, both proteins purified in house by immunoadsorbent chromatography
T3 sequence (P00451 1668-2351 limits assumed): T1 sequence (P00451 1668-2351 limits assumed)
T3 sequence (P00451 20-759 partner limits assumed): T1 sequence (P00451 20-759 partner limits assumed)
Description: Competitive inhibition assay of FVIII binding to solid phase vWF: 50 μg of whole unreduced vWF in 1 ml of 0.01M PO4, 0.15M Nacl, 0.02% NaN3, pH 7.3 (PBS), was incubated with three 1/4 inch in diameter polystyrene beads (Pierce Chemical Company, Rockford, Ill.) per 16 mm in diameter tissue culture well for 2 hours at room temperature. The solution was removed and the wells and the beads were then blocked with 1 ml of PBS containing 0.05% Tween-20 and 3% human serum albumin for 1 hour at room temperature. The wells and the beads were stored in the blocking solution at 4° C. for 16 hours to 10 days before use. The wells and beads were then washed ×3 with PBS. 0.05% Tween-20 and incubated for 11/2 hours at room temperature with 1.3 μg of purified FVIII and 0-100 μg of the competitive ligand in 1 ml of 0.05M imidazole, 0.15M Nacl, 0.02% NaN3, pH 7.0, 3 mM CaCl. The beads then were washed ×5 with PBS 0.05% Tween-20 and incubated for 11/2 hour at room temperature with 1.5×10^6 cpm of ^125 I-monoclonal anti-FVIII antibody C2 (specific activity 3.8×10^9 cpm/mg), in 1 ml of PBS 0.05% Tween-20 containing 0.5% bovine gamma globulin. After incubation, the wells and beads were washed with PBS 0.05% Tween-20×2. The beads were then transferred to clean wells and washed an additional four times and separately counted.
54, 1093-1094 (1974), 10-20 mM EDTA according to Tran et al., Thromb. Haemostas. 50, 547-551 (1983) or 1-1.5M Nacl according to Weiss et al., Thromb. Diath. Haemorrh. 27, 212-219 (1972).

Compound: O=C(O)CN(CCN(CC(=O)O)CC(=O)O)CC(=O)O [EDTA]
dissociation of FVIII from vWF ([4]; five washings with imidazole buffered saline containing 20 mM EDTA): 66 ±5%

Compound: [Ca+2].[Cl-].[Cl-] [CaCl2]
dissociation of FVIII from vWF ([4]; five washings with imidazole buffered saline containing 3 mM CaCl2): no FVIII dissociation
dissociation of FVIII from vWF ([4]; five washings with imidazole buffered saline containing 0.25M CaCl2 at 37° C.): 70 ±4%

Compound: [Cl-].[Na+] [Nacl]
dissociation of FVIII from vWF ([4]; five washings with imidazole buffer containing 1.5M Nacl): 86 ±1%

More lines, now with the values ahead:

complex formation with FVIII [1]: demonstrated complex formation
inhibition of FVIII binding to immobilized vWF (in words) [2]: completely inhibit
binding of purified FVIII to the immobilized protein [3]: bound
Compound: vWF: purified von Willebrand factor from commercial factor VIII concentrate

complex formation with FVIII [1]: unable to bind FVIII
inhibition of FVIII binding to immobilized vWF (in words) [2]: no inhibitory effect
Compound: Reduced and alkylated vWF: vWF after reduction and alkylation
